Test results published in paper PMC6787221.

Assays:
[1] = biological target: STAM2 UIM-SH3 with the linker shortened by 7 amino acids (human); experiment: NMR titration; 1H-15N HSQC chemical shift perturbation of 15N-labelled US-WT, US-Δ1, US-Δ2 upon addition of unlabelled Lys63-Ub2 until saturation; 15 °C, 20 mM sodium phosphate pH 6.8, 10% D2O, 0.02% NaN3; 2:1 model (each domain interacts with one unit of Lys63-Ub2)
[2] = biological target: STAM2 UIM-SH3 with the linker shortened by 14 amino acids (human); experiment: as above

- KD at the SH3 domain [1]: 253 µM
- KD at the SH3 domain [2]: 483 µM
Substance: Lys63-linked diubiquitin (from UniProt P0CG48 1-76) (complex)
